Laboratory results as given in the supplement of paper PMC6757056.
± gives the standard deviation of the averaged measurements.

B1: library; a variant is named by its letters at N, in order (parent)
chain: GCUGUCACCGAGAAACUGUGAAGUAUAUCUUAAACCUGGGCACUUAAAAGAUAUAUGGAGUUAGUAGUGCAACCUGCUCGGUCUGAUGAGUCCNNNNNNGGACGAAACAGC

Assays:
cyclic di-GMP [1] = variants of: B1; assay: normalized RNA/DNA level without ligand (relative to sTRSVctl = 100) (log10 (% of sTRSVctl)); HEK293T; ligand: cyclic di-GMP (c-di-GMP-II aptamer); higher = less ribozyme self-cleavage, higher mRNA level; settings: reporter: mCherry (pCS4076), ligand present: no
Method in brief: (§1)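 Ribozyme switch library plasmids linked to reporters were introduced into HEK293T cells at 4 µg per 6-well well, with ligand, if any, added 1 h before. Total RNA was extracted with EDTA 72 h later, reverse-transcribed, amplified, barcoded and sequenced. RNA level was computed from RNA over DNA reads relative to a spiked-in non-cleaving sequence or the top sequences, then scaled and log-transformed. The top set was 25 sequences, values were ×100 and log10, and the cutoff was ≥100 DNA reads.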

cyclic di-GMP [2] = variants of: B1; assay: normalized RNA/DNA level with ligand (relative to sTRSVctl = 100) (log10 (% of sTRSVctl)); HEK293T; ligand: cyclic di-GMP (c-di-GMP-II aptamer); ligand concentration (+) RNA-Seq: 1 mM; higher = less ribozyme self-cleavage, higher mRNA level; settings: reporter: mCherry (pCS4076), ligand present: yes
Method in brief: as §1

| Variant | normalized RNA/DNA level without ligand (log10) (cyclic di-GMP [1]) | normalized RNA/DNA level with ligand (log10) (cyclic di-GMP [2]) |
| --- | --- | --- |
| ACCGAC | 1.61 ± 0.06 | 1.77 ± 0.11 |
| ACCGAG | 1.57 ± 0.031 | 1.74 ± 0.11 |
| ACCGAU | 1.48 ± 0.072 | 1.67 ± 0.091 |
| GCCGGG | 1.86 ± 0.089 | 1.93 ± 0.13 |
| GCCGGC | 1.56 ± 0.035 | 1.74 ± 0.2 |
| GCCGGA | 1.55 ± 0.041 | 1.7 ± 0.11 |
| UCAUCC | 1.78 ± 0.027 | 1.9 ± 0.082 |
| UCAUCU | 1.71 ± 0.052 | 1.9 ± 0.1 |
| UCAUCG | 1.79 ± 0.023 | 1.88 ± 0.086 |
| UCCGCC | 1.75 ± 0.076 | 1.89 ± 0.11 |
| UCCGCA | 1.72 ± 0.021 | 1.86 ± 0.14 |
| UCCGCG | 1.774 ± 0.0088 | 1.89 ± 0.083 |
| UCCGCU | 1.75 ± 0.052 | 1.88 ± 0.08 |
| CCCUCG | 1.75 ± 0.0059 | 1.91 ± 0.097 |
| CCCUCU | 1.62 ± 0.03 | 1.8 ± 0.12 |
| CCCGAC | 1.7 ± 0.018 | 1.81 ± 0.14 |
| CCCGAG | 1.56 ± 0.065 | 1.76 ± 0.11 |
| CCCGAU | 1.64 ± 0.027 | 1.83 ± 0.12 |
| GCCCAA | 1.616 ± 0.011 | 1.77 ± 0.17 |
| GCCCAU | 1.67 ± 0.036 | 1.85 ± 0.15 |
| GCCCAG | 1.9 ± 0.036 | 1.97 ± 0.095 |
| GCCCAC | 1.656 ± 0.0072 | 1.82 ± 0.14 |
| UCCCGG | 1.855 ± 0.016 | 1.93 ± 0.069 |

| Variant | normalized RNA/DNA level without ligand (log10) (cyclic di-GMP [1]) | normalized RNA/DNA level with ligand (log10) (cyclic di-GMP [2]) |
| --- | --- | --- |
| UCCCGA | 1.77 ± 0.059 | 1.87 ± 0.1 |
| UCCCGC | 1.801 ± 0.018 | 1.91 ± 0.1 |
| UCCUCU | 1.74 ± 0.06 | 1.87 ± 0.13 |
| GCCAAC | 1.51 ± 0.086 | 1.66 ± 0.056 |
| GCCAAA | 1.49 ± 0.1 | 1.68 ± 0.08 |
| CCAUUC | 1.59 ± 0.043 | 1.77 ± 0.12 |
| CCAUUA | 1.41 ± 0.066 | 1.6 ± 0.093 |
| CCAUUU | 1.569 ± 0.013 | 1.7 ± 0.12 |
| UCCGGG | 1.852 ± 0.016 | 1.93 ± 0.06 |
| UCCGGA | 1.606 ± 0.0039 | 1.8 ± 0.096 |
| UCCGGC | 1.79 ± 0.062 | 1.95 ± 0.12 |
| UCCGGU | 1.67 ± 0.024 | 1.85 ± 0.1 |
| CCCGUU | 1.74 ± 0.032 | 1.87 ± 0.089 |
| CCCGUG | 1.62 ± 0.024 | 1.8 ± 0.09 |
| CCCACG | 1.75 ± 0.018 | 1.87 ± 0.044 |
| CCCACC | 1.728 ± 0.007 | 1.84 ± 0.097 |
| CCCACA | 1.57 ± 0.098 | 1.74 ± 0.05 |
| CCCACU | 1.624 ± 0.014 | 1.83 ± 0.12 |
| CCAUGU | 1.68 ± 0.054 | 1.8 ± 0.097 |
| CCAUGG | 1.65 ± 0.11 | 1.82 ± 0.02 |
| CCAUGA | 1.52 ± 0.033 | 1.72 ± 0.087 |
| ACCACG | 1.633 ± 0.01 | 1.81 ± 0.12 |
| ACCACU | 1.61 ± 0.062 | 1.82 ± 0.087 |

| Variant | normalized RNA/DNA level without ligand (log10) (cyclic di-GMP [1]) | normalized RNA/DNA level with ligand (log10) (cyclic di-GMP [2]) |
| --- | --- | --- |
| ACCACA | 1.6 ± 0.019 | 1.76 ± 0.13 |
| ACCCCU | 1.74 ± 0.036 | 1.86 ± 0.076 |
| ACCCCA | 1.744 ± 0.012 | 1.86 ± 0.1 |
| ACCCCC | 1.82 ± 0.064 | 1.91 ± 0.14 |
| GCAUCA | 1.61 ± 0.11 | 1.77 ± 0.12 |
| GCAUCG | 1.59 ± 0.045 | 1.76 ± 0.099 |
| GCAUCC | 1.65 ± 0.077 | 1.82 ± 0.052 |
| UCCUGA | 1.69 ± 0.048 | 1.85 ± 0.1 |
| UCCUGC | 1.79 ± 0.062 | 1.91 ± 0.053 |
| UCCUGG | 1.82 ± 0.057 | 1.91 ± 0.14 |
| UCCUGU | 1.72 ± 0.018 | 1.88 ± 0.059 |
| UCCUAA | 1.63 ± 0.077 | 1.79 ± 0.067 |
| UCCUAU | 1.63 ± 0.085 | 1.8 ± 0.097 |
| UCCUAG | 1.71 ± 0.018 | 1.82 ± 0.087 |
| UCCUAC | 1.75 ± 0.04 | 1.87 ± 0.14 |
| UCCAAG | 1.6 ± 0.033 | 1.78 ± 0.097 |
| UCCAAC | 1.62 ± 0.037 | 1.78 ± 0.11 |
| UCCAAU | 1.645 ± 0.015 | 1.82 ± 0.12 |
| UCCGUG | 1.73 ± 0.033 | 1.85 ± 0.11 |
| UCCGUC | 1.75 ± 0.018 | 1.9 ± 0.14 |
| UCCGUU | 1.6717 ± 0.00065 | 1.85 ± 0.12 |
| UCCGUA | 1.51 ± 0.1 | 1.7 ± 0.084 |
| GCCCCC | 1.78 ± 0.026 | 1.88 ± 0.084 |

| Variant | normalized RNA/DNA level without ligand (log10) (cyclic di-GMP [1]) | normalized RNA/DNA level with ligand (log10) (cyclic di-GMP [2]) |
| --- | --- | --- |
| GCCCCG | 1.799 ± 0.012 | 1.84 ± 0.086 |
| GCCACG | 1.68 ± 0.051 | 1.81 ± 0.12 |
| GCCACU | 1.684 ± 0.016 | 1.86 ± 0.12 |
| GCCACA | 1.654 ± 0.016 | 1.81 ± 0.089 |
| GCCUAU | 1.662 ± 0.0027 | 1.85 ± 0.13 |
| GCCUAC | 1.55 ± 0.059 | 1.72 ± 0.047 |
| GCCUAA | 1.59 ± 0.071 | 1.78 ± 0.055 |
| GCCUAG | 1.74 ± 0.068 | 1.86 ± 0.16 |
| ACAUUU | 1.42 ± 0.05 | 1.67 ± 0.11 |
| ACAUUC | 1.6 ± 0.084 | 1.81 ± 0.058 |
| GCAUAU | 1.528 ± 0.014 | 1.72 ± 0.06 |
| GCAUUA | 1.47 ± 0.089 | 1.71 ± 0.12 |
| GCAUUU | 1.55 ± 0.037 | 1.74 ± 0.095 |
| GCAUUC | 1.423 ± 0.011 | 1.7 ± 0.17 |
| ACCUGC | 1.71 ± 0.029 | 1.85 ± 0.076 |
| ACCUGG | 1.68 ± 0.081 | 1.88 ± 0.049 |
| ACCUGU | 1.72 ± 0.063 | 1.84 ± 0.13 |
| GCCAUC | 1.564 ± 0.0079 | 1.77 ± 0.074 |
| GCCAUG | 1.59 ± 0.051 | 1.79 ± 0.066 |
| ACCCGG | 1.7 ± 0.022 | 1.86 ± 0.099 |
| ACCCGA | 1.54 ± 0.039 | 1.73 ± 0.13 |
| ACCCGU | 1.73 ± 0.023 | 1.84 ± 0.08 |
| ACCAAU | 1.48 ± 0.049 | 1.7 ± 0.11 |

| Variant | normalized RNA/DNA level without ligand (log10) (cyclic di-GMP [1]) | normalized RNA/DNA level with ligand (log10) (cyclic di-GMP [2]) |
| --- | --- | --- |
| CCCUGU | 1.75 ± 0.043 | 1.87 ± 0.13 |
| CCCUGA | 1.61 ± 0.068 | 1.82 ± 0.068 |
| CCCUGG | 1.74 ± 0.022 | 1.85 ± 0.03 |
| CCCGCG | 1.79 ± 0.046 | 1.9 ± 0.044 |
| CCCGCU | 1.74 ± 0.024 | 1.88 ± 0.11 |
| CCCGCA | 1.66 ± 0.037 | 1.8 ± 0.08 |
| CCCGCC | 1.8 ± 0.13 | 1.92 ± 0.16 |
| GCCCUC | 1.744 ± 0.0049 | 1.87 ± 0.12 |
| GCCCUU | 1.701 ± 0.0065 | 1.85 ± 0.097 |
| GCCCUG | 1.76 ± 0.021 | 1.86 ± 0.11 |
| CCCCUC | 1.73 ± 0.0095 | 1.87 ± 0.079 |
| CCCCAA | 1.59 ± 0.018 | 1.76 ± 0.14 |
| CCCCAG | 1.679 ± 0.008 | 1.82 ± 0.11 |
| ACAUAU | 1.45 ± 0.097 | 1.64 ± 0.14 |
| CCCAUC | 1.728 ± 0.0037 | 1.84 ± 0.14 |
| CCCAUG | 1.53 ± 0.08 | 1.73 ± 0.13 |
| GCCAGC | 1.67 ± 0.064 | 1.83 ± 0.18 |
| GCCAGA | 1.48 ± 0.05 | 1.68 ± 0.1 |
| GCCAGU | 1.604 ± 0.016 | 1.82 ± 0.098 |
| CCCCGU | 1.76 ± 0.021 | 1.88 ± 0.14 |
| CCCCGC | 1.77 ± 0.03 | 1.88 ± 0.11 |
| CCCCGA | 1.6835 ± 0.00018 | 1.84 ± 0.13 |
| CCCCGG | 1.83 ± 0.049 | 1.94 ± 0.11 |
